# Measurements taken from the domain aggregation screens of Martell et al. (2025).
# Assay: soluble fraction after stress (log2 fold change); higher = more stays soluble; pooled small domains, quantitative proteomics
# Details: stress: 75 degC
# 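Also: 20 min heating vs room temperature control held 20 min.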
row,Sequence,soluble fraction (log2)
1,HMLINIKTNSAVNVRSGPGMGFEVVNTYPSGYILQAKEMQKDGGDNVWYKVKDGWLSANYTIDI,-0.787
2,HMLINPLDILRNFNLSLYDDSRDSASNKEIDEIFESIKTNNSHIFSTLKAYRIPLPIASLIIKKIIKITLE,-0.891
3,HMLISDENMLRDLVQAVLDENPKSVSDYKSGKTKAFGFLVGQTMKAVKGQADPMLVNKILTELLN,0.236
4,HMLISYRVDALANEAGLSVDTIRYYQKLGILDPPKRTGRHSEYSPDHLERLIEIRRLADAGLTLSQISEI,-2.55
5,HMLKAKKIPVSDLEKFKGIVAEDVVSKAKALILPRGSNLSWLSNVAKKNLIAKLKAEGIEYISVYSS,-0.47
6,HMLKDGPIGAYADSVIRDIIEKMERFSKEHINVDMLKIHEKIMLIDEPIIRMALLDEFHRVSHDN,-2.47
7,HMLKEKETRALANFTNKFFGLDISEDLKPIALSELSKFKKTHKISNLEEFINSFQYDFQNEKILSLLDIFL,-1.34
8,HMLKFPIGTHVGKKKPSANLSLPNKHGVVIGHGERRNAKGAIMRFYIVETTHSSRPEEWAPGITYPL,-2.72
9,HMLKHEEIQEYIKEQINSGTWKPKAKLPSLRDMSELFSTSIGTVLTAYSALEKKHIIYSIPRSGYYVLG,-4.48
10,HMLKLEDIKKDAQVKGIVDGQIVRIVTVEPIGDHALTVYYKDHQGQFAERMLFRSDELNLELATA,-0.244
11,HMLKLSGEESQQLALRLREELARRRITRQGLADAAKISISTLEQVLAGRRTFTLATIVRLEEGLGIKLL,-2.65
12,HMLKNKSTGNINETKAILELALNHSHFKVFDNRDMTVTFKNLATQFTTMQRILVQMFFPLPAGVELIIE,0.428
13,HMLKNYATPEQRAQLDMLKDKGIIGENELMQLGKYPSQDKASEVLENHADAVKMLDSDEISNRAEAIRSHD,0.173
14,HMLKPQQTQRIYAMAARLGVLESGNKNDMLHTIVYRLTQKESIRSLNENEYKTVVSELAERLKL,-1.12
15,HMLKQLGRQEGRQEGAVDALRTVLALQIEQRFGPLDPTVQALIVAADIDALQRALSRVAVVSDLGAVFPP,-0.875
16,HMLKRLTVEFSAEMPKKMTSEQKEELASVLSEDPRPAYQNDENREYGLDYGEFSVKFKVKDGVLTVTSVTE,-0.0802
17,HMLLNLSPIETQVLRLIQQDKKVTYESIGKELTIGQTKVYKVLGHLKELNVIERIGGRTYGHWHILL,-1.33
18,HMLLNPFERLTERELEIADLYAKGYGNLEIANFLSIKQNTVSTYKKRIFEKLGIDNLVELIELIKNY,0.265
19,HMLLQTRQRHEALAALGYFKGDVAAAWGPASEEALRAAQAAFGITVDGKWGPQTEDAIQGALQV,-0.357
20,HMLLREKLESVLPFISVSALAKTYFKRSPQWFYQRLNGSIVNGKPIRFNDAELKTLAGALTDIGKKISQAA,-0.285
21,HMLLSEPSVLKFNDDNSYEIVSGFLTEYKDKIVKIERRYKKATVKITVAGEEKEIKVSFVEDTE,-1.43
22,HMLLSTHVVVAKEDVQIGTRLQPAMLQVVDWPSASPLKNPLTSIEQATDRVVNMPLVKGEPISMSKLAAKG,-0.296
23,HMLLTASNYFKETKGINFSELPEALQKGHSFVIKSTENGTNWNAYSTSQNIQRVIDAYFSKLDEYLEKNQ,-0.578
24,HMLLTHEEQIVKRGWQAPVGPFAILDSRAEAMHGDLEMLRGDREAAEQHFRRAWQIIGPIVEQ,-0.0144
25,HMLMKILTDALEKMSPEELKELAEATGVKNTSSITPETMVGVFQAVFRVGGFKSYQLTLIIVNAVLKA,-0.148
26,HMLMRKAEVGVESLNLRHGPGTQYKVLEILPGGKSLHYLAEPRRGWVRVTTEEGTTGWTFLKFLKPE,-2.22

row,Sequence,soluble fraction (log2)
1,HMLNENNHGEWSIRMSNGLVVRLGRDELNRSLRRSIMAYAGLAPNYRSSIEYIDARYLGGVALKTF,-0.159
2,HMLNKRQAEILAEVSRLKEITPSELYKLQPNVSSRTLRRDMDVLVNKGLVSQDGSTKSTKYTYL,0.193
3,HMLNMTLGDRIRSRREELRMSQEELATRLGYKSRSTIAKIESGENDLTQSKIVAFAEALSTTARWLLDY,-1.88
4,HMLNVNDVIARNVRAARERKKLTLDGAAELTGVSRSMLAQIEKGEVNPTISVVWKIANGFKVSFTSLVEPQ,-3.85
5,HMLPAGSDAILRYLSSGAVKGIGVATAARIVEKFGDETLRILEEEPGRLAEIKGITAAKAKAIGEAFAGQ,-0.356
6,HMLPELIVTTKKGVTVTVTNGVITYSATSNGKATFTVPNYGKWTVSATINGTVISKVVDVTEAKQIPVLLG,-1.07
7,HMLPERIQTIVALIGHGRAMDLVREFGGQEIKFPAQEGNDTWAALVEVIGEAATRKLAAVFGGGQAPPVYI,-1.17
8,HMLPGVPVVAGKTQSAATRILKAAGYAVSVVREEAFDGVTGTVLRTSPEAGSPLAPGSRVTLVVLQVV,-2.22
9,HMLPGWMETKFTANVSENTKNRTLEEHVLKMLNNKESAAEFIIFLHEKMMSVSGQVFQLDSR,-0.013
10,HMLPIGSSREQVISSLNKMHQDYKEEGNFIYAGYFKQGLPLVPSPRISIALQFNETAHLEKIDATLNYV,-0.343
11,HMLPKLAEEYAIMEIRGKGENLTAKLINKGGDSFMVRNGTVLQTGHRIDEITQTYVRAEINGMKDYLYFA,-0.645
12,HMLPLLAFDEKLNRLGYGGGFYDRTLASLAHKGNTITAIGIAYESQKMDKVPTGYFDRPLDGVLTPSGLIM,0.0528
13,HMLPNLWVMGPGDHLWRVAEVAMTKHLGRPVANHEIDGYWRRLVALNRESLIDPDNPDLVFAGQVIELPPF,-2.59
14,HMLPQGKGTAMWLADHLAAASVTLDAGARKLLEDTLGEDMSRLPGVLRVLEATFGSDAGRLSAEDIEPFL,0.075
15,HMLPRNKRIEIALTYIYGLGRHAATVVLKHANISPDKRTDDLDENDVRKLRDAIDANFRVEGDLRR,-1.55
16,HMLPTVSITGHIFIRSGSPLNRIFVGEKIYHVGDHIDRDWVIESIGIDTLTIRSGTLSTQLPL,-2.99
17,HMLPVFNYQVYRTHGLIYVYAKDNDSFDQIARSMGFKAKQLMKFNEVPEDFPLQAGDIVYLEKKKK,-2.35
18,HMLPVLEIGTMIRIIRQPHFGTIARVVALPEELTKVESETLVRILDAEFDDGTRVRIPRANVEVIE,-3.04
19,HMLPYGDRRRHTDNTISRIRELAAALDDSGIADRLNQDGYVTPEGKPFTYAGVRWIRYKYDISGPYERN,-1.91
20,HMLQKVELSDNEKFIFDSLQKEQKMALLRLKELVNLSNKAWDVSVKNLTKQGLVKVTKIDEELLIEI,-0.845
21,HMLQPQMKKFLNYESARNKMRPFGLSTRKEWRLFVDEGNRPADIPGDPYKKYKNKGWISWPHFLGK,-1.42
22,HMLRDTTLLHIDSIVRDGSTAMANITVRDEGTDLEFPLQLRMERGDMGWQVVRIVNYRAYLEAVQKA,-0.351
23,HMLRGKNALMSQLDQIQGIGPKRKRALFNHFLTLDAIKQADVETLRQAPGMNLPAAEQVYRHFHM,-0.2
24,HMLRIIDYNRVVKDLNGLTPEQLLEKLAESFTVEDKGTEEYRPTELHNFSMYLGGHWYSLTAKPGTYDDND,-1.2
25,HMLRMTRNRQKLVEVLMESGRPLSADEIREAAGFASTDLVTVYRNLEAFQSAGLLQRIPLENGSQLFELT,-0.46
26,HMLRNDEAVMLGRRLLNKHLQAFSVQIKDISHQRIHDLLDELELESLDHLLDDIGLGNRSVFLVAQKLLQ,-1.48

row,Sequence,soluble fraction (log2)
1,HMLRQRVFRIIQNNINSKNYFVYTKQILAELAGISMRSLNRTLSELQNDRLIIVDSGTIRLFT,-3.12
2,HMLRVGASVTANGKYWYDSYGSKPFGTANNLSTTVTRIVPGNPYPIHIGSYGWLQESQIQIT,-1.67
3,HMLSDADLAAFREVFDLVDKDKSGAIEMEEVEELTKLLGLDLTRDEVELLVREIDKDGNGEVDFEEFLLVM,0.00598
4,HMLSDHGLNDRQIMVIAGLMNGGTVTVRSIESQYGVSLNTARADVKMLVDAGLLTETGREVNMKVYSWSGK,-2.05
5,HMLSDSDTLRDLYLSEQIWNVGDLIRVKGKNDDTHPSWEIIRRGTNYITAIDENYKSHKVWLHDIDI,-1.3
6,HMLSEKELLELLNRAKSNYNGITKKGIEAIALKYQGYSNVEIANLYHVKANHISAWISRARSRLKADY,0.07
7,HMLSNLYAVLGVGRRATPDEITAAFDAWNARADAGEPIDDPLWERVRYAWDVLSSPSRRDLYDSLVDDATG,-1.74
8,HMLSSREEKILNYLNEHQIITRKKAQELLETSQSTAGRVLKIMVDNGLIVQYGGSRSIWYELIK,-1.79
9,HMLSTGIIIGDNVALRKTASSNGGIITRLDEGTVVKILASNVNAEWYQVEAGTKTGYVNRLYVNID,-1.07
10,HMLSTGQLIRYYRKRAGMTQAELAEEVEMSEPGIRNYELGNRTPSKAQLSAIARGLGIEPEALI,-0.63
11,HMLSVKEQTYQIIKEKILNQEYPAGARININELAEELGISNSPIREALSLLEQQGLVISNRSSGATVT,-0.176
12,HMLSVLKNVDVNSLSDDKIKTYWQQIQKSGYTLDEVEVLAEAQGISPLKIAAFKRRVQSLQQSLQT,0.311
13,HMLSYDDTVVIGRNLLENAMKQKNIALEQLTDEVLARLAKELQVESVEAMYAGIGSGKRPSSFIINRLEAH,-0.75
14,HMLSYFKIIKNGLVREGPASYYKIAENLEIGTIVQAFEKHDDWYLIKTHSGRIGWIVASDVTPQV,-3.62
15,HMLTAHEAILKELRKMLLTGVLSPGEAVRPEIIGESFGVSAVPVREALRILEGEGQVLNRPHKGYVVT,-0.904
16,HMLTANPEEVVNRLTSAGEVGVRPLLDVDDPINAISTLLAIREDVYKQFAQFDTVGKSPSEIAHEIDDFL,0.11
17,HMLTEERLQIITDTVNSRSSVTIAELSRILDVSPSTVKRDLNILAEAGKITKVRGGAIALGE,-0.285
18,HMLTGDVDRYKDFFIALEKTSPVPIGFEKIIGGAHGYYHLEDKRIAIDEGMSELQTLKTAIHEIAHAKLHD,-0.312
19,HMLTGNTAKLFAHLVEVMNPKEFVKINRQTVIVEAGIPRGSVGAAIAKLLETGHLIANASGAYKLT,0.278
20,HMLTIEEYLTQLKKLMKDRDAATVRDALSDAEEHLRNAMAGEDPSRLDGIIEEYGSPEEIAAAYKIMEEHT,-0.082
21,HMLTIQNYFNQVKNIDWEQVPAALSKGHQLVEGASQNNWSAYHSNANIQRVVEAYFQKLNDYLEKN,-0.0425
22,HMLTKGDRQSIRDSIIYMVGNAPRTLDYIVAESRYSEEDVIEAVRSLLSSHILSIDDSDMISLTRK,-1.02
23,HMLTNNYKNDKALRFAKNHGIHESNILKLVSLYENAPEKGFNAQSIAELLGITPRSASRILVKLLQHNLIR,-1.8
24,HMLTPSRVLPYLFEDSFFIDTLSLEKDQVVGFLEYIDERLPPQDLMNKSKEFELIDYLINESEAYLSQ,-0.00122
